B1: human C5a receptor (C5aR) (receptor)
chain: MDSFNYTTPDYGHYDDKDTLDLNTPVDKTSNTLRVPDILALVIFAVVFLVGVLGNALVVWVTAFEAKRTINAIWFLNLAVADFLSCLALPILFTSIVQHHHWPFGGAACSILPSLILLNMYASILLLATISADRFLLVFKPIWCQNFRGAGLAWIACAVAWGLALLLTIPSFLYRVVREEYFPPKVLCGVDYSHDKRRERAVAIVRLVLGFLWPLLTLTICYTFILLRTWSRRATRSTKTLKVVVAVVASFFIFWLPYQVTGIMMSFLEPSSPTFLLLKKLDSLCVSFAYINCCINPIIYVVAGQGFQGRLRKSLPSLLRNVLTEESVVRESKSFTRSTVDTMAQKTQAV
notes: whole, on cells; also called CD88
B2: formylated peptide receptor (FPR) (receptor)
chain: METNSSLPTNISGGTPAVSAGYLFLDIITYLVFAVTFVLGVLGNGLVIWVAGFRMTHTVTTISYLNLAVADFCFTSTLPFFMVRKAMGGHWPFGWFLCKFVFTIVDINLFGSVFLIALIALDRCVCVLHPVWTQNHRTVSLAKKVIIGPWVMALLLTLPVIIRVTTVPGKTGTVACTFNFSPWTNDPKERINVAVAMLTVRGIIRFIIGFSAPMSIVAVSYGLIATKIHKQGLIKSSRPLRVLSFVAAAFFLCWSPYQVVALIATVRIRELLQGMYKEIGIAVDVTSALAFFNSCLNPMLYVFMGQDFRERLIHALPASLERALTEDSTQTSDTATNSTLPSAEVELQAK
notes: whole, on cells

Biological target: T1, Wild-type CHIPS1-121 (Chemotaxis Inhibitory Protein of Staphylococcus aureus) (Staphylococcus aureus, UniProt A6QIG7 29-149)
T1 construct: His tag cleaved off with enterokinase; also called CHIPSWT
Assay: flow cytometry of gated blood neutrophils after iv CHIPS, stained with rabbit anti-CHIPS IgG and FITC goat anti-rabbit; the staining does not separate C5aR-bound from FPR-bound CHIPS

Row | Binder | binding result
1 | B1 | binds
2 | B2 | binds

Reference: patent US20120071394A1 (ALLIGATOR BIOSCIENCE, published 2012)
